Assay results taken from the supplement of paper PMC11780869.

Tested on: Bacillus subtilis
Assay: cleaved RNA product abundance (RNA/gDNA barcode ratio) relative to median wild-type variant (ratio to wild type); higher = more accumulation of the downstream cleavage product
Settings: cleavage site: cggR-gapA (positions -7 to +36 mutated)
How it was run: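 Sequencing of barcodes from gel-selected, reverse-transcribed cleaved RNA and from genomic DNA, with UMI collapsing, yielded a per-construct RNA:gDNA ratio. Scaled to the median construct with the unmutated site, this ratio is the cleaved product abundance. The barcoded reporters (truncated aprE or tetM mRNAs with mutagenized RNase Y cleavage-site windows) were integrated into the B. subtilis chromosome, and cultures grew in LB at 37°C from OD600 0.0003 to 0.3.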

[1] = experiment (reporter, strain, medium): exp 2b: truncated aprE reporter, strain BJT200
[2] = experiment (reporter, strain, medium): exp 4a: truncated aprE reporter, strain BJT201 with 2% xylose (RNase J1 expressed)
[3] = experiment (reporter, strain, medium): exp 6: tetM reporter, strain 168

| Sequence | cleaved RNA product abundance [1] | cleaved RNA product abundance [2] | cleaved RNA product abundance [3] |
| --- | --- | --- | --- |
| ACAGACGAAGGAGCCGCAAAGAAGTTATTAAGGGATGAAGAATCCTTCAATATAAATATCTCTCACTTATTTAAA | 0.265 | 0.405 | – |
| ACAGACGAAGGAGCCGCAAAGAAGTTATTAAGGGATGAAGAATTCCTCAATATAAATATCTCTCACTTATTTAAA | – | 0.29 | – |
| ACAGACGAAGGAGCCGCAAAGAAGTTATTAAGGGATGAAGATTCCCTCAATATAAATATCTCTCACTTATTTAAA | – | 0.68 | – |
| ACAGACGAAGGAGCCGCAAAGAAGTTATTAAGGGATGAAGCATCCCTCAATATAAATATCTCTCACTTATTTAAA | – | 0.748 | – |
| ACAGACGAAGGAGCCGCAAAGAAGTTATTAAGGGATGAATAAAACCTCAATATAAATATCTCTCACTTATTTAAA | 0.119 | 0.125 | – |
| ACAGACGAAGGAGCCGCAAAGAAGTTATTAAGGGATGAATAAACACTCAATATAAATATCTCTCACTTATTTAAA | 0.0698 | 0.172 | – |
| ACAGACGAAGGAGCCGCAAAGAAGTTATTAAGGGATGAATAAACCATCAATATAAATATCTCTCACTTATTTAAA | 0.125 | 0.101 | – |
| ACAGACGAAGGAGCCGCAAAGAAGTTATTAAGGGATGAATAAACCCACAATATAAATATCTCTCACTTATTTAAA | 0.143 | 0.0828 | – |
| ACAGACGAAGGAGCCGCAAAGAAGTTATTAAGGGATGAATAAACCCGCAATATAAATATCTCTCACTTATTTAAA | – | 0.103 | – |
| ACAGACGAAGGAGCCGCAAAGAAGTTATTAAGGGATGAATAAACCCTAAATATAAATATCTCTCACTTATTTAAA | – | 0.4 | – |
| ACAGACGAAGGAGCCGCAAAGAAGTTATTAAGGGATGAATAAACCCTCAAAATAAATATCTCTCACTTATTTAAA | 0.196 | 0.198 | – |
| ACAGACGAAGGAGCCGCAAAGAAGTTATTAAGGGATGAATAAACCCTCAACATAAATATCTCTCACTTATTTAAA | 0.122 | 0.0675 | – |
| ACAGACGAAGGAGCCGCAAAGAAGTTATTAAGGGATGAATAAACCCTCAATATAAAAATCTCTCACTTATTTAAA | – | 0.519 | – |
| ACAGACGAAGGAGCCGCAAAGAAGTTATTAAGGGATGAATAAACCCTCAATATAAATAACTCTCACTTATTTAAA | – | 0.464 | – |
| ACAGACGAAGGAGCCGCAAAGAAGTTATTAAGGGATGAATAAACCCTCAATATAAATATCTCTCACTTATTTAAA | 0.443 | 0.52 | 0.578 |
| ACAGACGAAGGAGCCGCAAAGAAGTTATTAAGGGATGAATAAACCCTCAATATAAATGTCTCTCACTTATTTAAA | 0.292 | 0.39 | – |
| ACAGACGAAGGAGCCGCAAAGAAGTTATTAAGGGATGAATAAACCCTCAATATAATTATCTCTCACTTATTTAAA | 0.293 | 0.33 | – |
| ACAGACGAAGGAGCCGCAAAGAAGTTATTAAGGGATGAATAAACCCTCAATATAGATATCTCTCACTTATTTAAA | 0.365 | 0.342 | – |
| ACAGACGAAGGAGCCGCAAAGAAGTTATTAAGGGATGAATAAACCCTCAATATATATATCTCTCACTTATTTAAA | 0.488 | 0.477 | – |
| ACAGACGAAGGAGCCGCAAAGAAGTTATTAAGGGATGAATAAACCCTCAATGTAAATATCTCTCACTTATTTAAA | – | 0.19 | – |

| Sequence | cleaved RNA product abundance [1] | cleaved RNA product abundance [2] | cleaved RNA product abundance [3] |
| --- | --- | --- | --- |
| ACAGACGAAGGAGCCGCAAAGAAGTTATTAAGGGATGAATAAACCCTCACTATAAATATCTCTCACTTATTTAAA | – | 0.173 | – |
| ACAGACGAAGGAGCCGCAAAGAAGTTATTAAGGGATGAATAAACCCTCAGTATAAATATCTCTCACTTATTTAAA | – | 0.211 | – |
| ACAGACGAAGGAGCCGCAAAGAAGTTATTAAGGGATGAATAAACCCTCATTATAAATATCTCTCACTTATTTAAA | 0.13 | 0.19 | – |
| ACAGACGAAGGAGCCGCAAAGAAGTTATTAAGGGATGAATAAACCCTCCATATAAATATCTCTCACTTATTTAAA | – | 0.162 | – |
| ACAGACGAAGGAGCCGCAAAGAAGTTATTAAGGGATGAATAAACCCTCTATATAAATATCTCTCACTTATTTAAA | 0.151 | – | – |
| ACAGACGAAGGAGCCGCAAAGAAGTTATTAAGGGATGAATAAACCCTGAATATAAATATCTCTCACTTATTTAAA | 0.303 | 0.388 | – |
| ACAGACGAAGGAGCCGCAAAGAAGTTATTAAGGGATGAATAAACCCTTAATATAAATATCTCTCACTTATTTAAA | – | 0.507 | – |
| ACAGACGAAGGAGCCGCAAAGAAGTTATTAAGGGATGAATAAACCTTCAATATAAATATCTCTCACTTATTTAAA | 0.096 | 0.267 | – |
| ACAGACGAAGGAGCCGCAAAGAAGTTATTAAGGGATGAATAAACTCTCAATATAAATATCTCTCACTTATTTAAA | – | 0.14 | – |
| ACAGACGAAGGAGCCGCAAAGAAGTTATTAAGGGATGAATAAATCCCTCAATATAAATATCTCTCACTTATTTAA | – | 0.537 | – |
| ACAGACGAAGGAGCCGCAAAGAAGTTATTAAGGGATGAATAAATCCTCAATATAAATATCTCTCACTTATTTAAA | – | 0.306 | – |
| ACAGACGAAGGAGCCGCAAAGAAGTTATTAAGGGATGAATAACACCACAATATAAATATCTCTCACTTATTTAAA | – | 0.0909 | – |
| ACAGACGAAGGAGCCGCAAAGAAGTTATTAAGGGATGAATAACACCTCAATATAAATATCTCTCACTTATTTAAA | – | 0.164 | – |
| ACAGACGAAGGAGCCGCAAAGAAGTTATTAAGGGATGAATAACCACTCAATATAAATATCTCTCACTTATTTAAA | 0.0866 | 0.17 | – |
| ACAGACGAAGGAGCCGCAAAGAAGTTATTAAGGGATGAATAACCCCTAAATATAAATATCTCTCACTTATTTAAA | – | 0.542 | – |
| ACAGACGAAGGAGCCGCAAAGAAGTTATTAAGGGATGAATAACCCCTCAAAATAAATATCTCTCACTTATTTAAA | 0.208 | – | – |
| ACAGACGAAGGAGCCGCAAAGAAGTTATTAAGGGATGAATAACCCCTCAATATAAATATCTCTCACTTATTTAAA | 0.56 | 0.609 | 0.408 |
| ACAGACGAAGGAGCCGCAAAGAAGTTATTAAGGGATGAATAACCCCTCAATATACATATCTCTCACTTATTTAAA | – | 0.37 | – |
| ACAGACGAAGGAGCCGCAAAGAAGTTATTAAGGGATGAATAACCCCTCAATATATATATCTCTCACTTATTTAAA | – | 0.739 | – |
| ACAGACGAAGGAGCCGCAAAGAAGTTATTAAGGGATGAATAACCCCTCAATCTAAATATCTCTCACTTATTTAAA | – | 0.0932 | – |
